From the Human Domainome abundance scans (Beltran et al. 2025)
± gives the uncertainty stated by the source.

B1: Cell division cycle and apoptosis regulator protein 1, residues 625 to 674; numbered along this chain, Q8IX12 (parent)
chain: ISTPTHWSKLDPKTMKVNDLRKELESRALSSKGLKSQLIARLTKQLKVEE

Variants of: B1
Assay: abundance fitness (aPCA) (normalised: wild type 0, dead -1); higher = more abundant; growth selection in yeast, the domain comes from the species named
Conditions: Homo sapiens

Variant | abundance fitness
ISTPTHWSKLDPKTMKVNDLRKELESRALSSKGLKSQLIARLTKQTKVEE | -0.467 ± 0.057
ISTPTHWSKLDPKTMKVNDLRKELESRAMSSKGLKSQLIARLTKQLKVEE | -0.021 ± 0.052
ISTPTHWSGLDPKTMKVNDLRKELESRALSSKGLKSQLIARLTKQLKVEE | -0.154 ± 0.038
ISTPTHWSRLDPKTMKVNDLRKELESRALSSKGLKSQLIARLTKQLKVEE | 0.009 ± 0.038
ISTPTHWSMLDPKTMKVNDLRKELESRALSSKGLKSQLIARLTKQLKVEE | -0.077 ± 0.044
ISTPTHWSKLDPKTMKVSDLRKELESRALSSKGLKSQLIARLTKQLKVEE | 0.081 ± 0.028
ISTPTHWSKLDPKTMKVNDLRKELMSRALSSKGLKSQLIARLTKQLKVEE | -0.076 ± 0.044
ISTPTHWSKLMPKTMKVNDLRKELESRALSSKGLKSQLIARLTKQLKVEE | 0.028 ± 0.03
ISTPTHWSKLNPKTMKVNDLRKELESRALSSKGLKSQLIARLTKQLKVEE | 0.054 ± 0.051
ISTPTHWSKLAPKTMKVNDLRKELESRALSSKGLKSQLIARLTKQLKVEE | 0.043 ± 0.037
ISTPTHWSKLDPKMMKVNDLRKELESRALSSKGLKSQLIARLTKQLKVEE | -0.013 ± 0.044
ISTPTHWSKLDPKVMKVNDLRKELESRALSSKGLKSQLIARLTKQLKVEE | -0.029 ± 0.033
ISTPTHWSKLDPKCMKVNDLRKELESRALSSKGLKSQLIARLTKQLKVEE | -0.074 ± 0.043
ISTPTHWSKLDPKEMKVNDLRKELESRALSSKGLKSQLIARLTKQLKVEE | -0.011 ± 0.034
ISTPTHWSKLDPKTMKVNDLRKLLESRALSSKGLKSQLIARLTKQLKVEE | -0.913 ± 0.07
IMTPTHWSKLDPKTMKVNDLRKELESRALSSKGLKSQLIARLTKQLKVEE | 0.127 ± 0.049
IKTPTHWSKLDPKTMKVNDLRKELESRALSSKGLKSQLIARLTKQLKVEE | 0.096 ± 0.037
ISTPTHWSKLDPKTMKSNDLRKELESRALSSKGLKSQLIARLTKQLKVEE | -0.036 ± 0.037
ISTPTHWSKLDPKTMKVNDLRKELESRALSSKGLKSQLIARLTKQLKIEE | 0.054 ± 0.059
ISTPTHWSKLDPKTMKVNDLRKELESRALSSKGLKSQLIARLTKQLKWEE | -0.178 ± 0.05
ISTPTHWSKLDPKTMKVNDLRKELESRALSSKGLKSQLIARLTKQLKSEE | -0.059 ± 0.033
ISTPTHWSKLDPKTMKVNDLRKELESRALSSKGLKSQLIARLTKQLKHEE | -0.106 ± 0.07
ISTPTHWSKLDPKTMKVNDLRKELESRALSSKGLKSQLIARLVKQLKVEE | -0.057 ± 0.041
ISTPTHWSKLDPKTMKVNDLRKELESRALSSKGLKSQSIARLTKQLKVEE | -0.592 ± 0.044
ISTPTPWSKLDPKTMKVNDLRKELESRALSSKGLKSQLIARLTKQLKVEE | 0.044 ± 0.034
ISTPTHWSKLDPKTMKVNDLRKELESAALSSKGLKSQLIARLTKQLKVEE | -0.713 ± 0.064

Variant | abundance fitness
ISTPTHWSKLDPKTMKVNDLRKELESRALSHKGLKSQLIARLTKQLKVEE | 0.031 ± 0.059
ISTPTHWSKLDPKTMKVNDLRKELESRALSCKGLKSQLIARLTKQLKVEE | -0.013 ± 0.046
ISTPTHWSKLDPKTMKVNDLRKELESRALSLKGLKSQLIARLTKQLKVEE | -0.084 ± 0.032
ISTPTHWSKLDPKTMKVNDLRKELESRALSTKGLKSQLIARLTKQLKVEE | -0.052 ± 0.038
ISTPTHWSKLDPKTMKVNDLRKELESRALSSKGLKSQLTARLTKQLKVEE | -0.049 ± 0.029
ISTDTHWSKLDPKTMKVNDLRKELESRALSSKGLKSQLIARLTKQLKVEE | -0.074 ± 0.039
ISTKTHWSKLDPKTMKVNDLRKELESRALSSKGLKSQLIARLTKQLKVEE | 0.112 ± 0.063
ISTFTHWSKLDPKTMKVNDLRKELESRALSSKGLKSQLIARLTKQLKVEE | -0.072 ± 0.065
ISTHTHWSKLDPKTMKVNDLRKELESRALSSKGLKSQLIARLTKQLKVEE | -0.206 ± 0.079
ISTETHWSKLDPKTMKVNDLRKELESRALSSKGLKSQLIARLTKQLKVEE | -0.052 ± 0.04
ISTGTHWSKLDPKTMKVNDLRKELESRALSSKGLKSQLIARLTKQLKVEE | 0.1 ± 0.033
ISTPTHWSKLDPKTMKVNDLRKELESRALSSKGLKSQLIARLTKQLDVEE | -0.204 ± 0.05
ISTPTHRSKLDPKTMKVNDLRKELESRALSSKGLKSQLIARLTKQLKVEE | -0.178 ± 0.036
ISTPTHASKLDPKTMKVNDLRKELESRALSSKGLKSQLIARLTKQLKVEE | -0.088 ± 0.035
ISTPTHWGKLDPKTMKVNDLRKELESRALSSKGLKSQLIARLTKQLKVEE | -0.036 ± 0.04
ISTPTHWYKLDPKTMKVNDLRKELESRALSSKGLKSQLIARLTKQLKVEE | -0.173 ± 0.063
ISTPTHWSKLDPKTMKVNDLRKELEKRALSSKGLKSQLIARLTKQLKVEE | 0.197 ± 0.059
ISTPTHWSKLDPKTMKVNDLRKELERRALSSKGLKSQLIARLTKQLKVEE | 0.118 ± 0.035
ISTPTHWSKLDPKTMKVNDLRKELESRALSSKGLTSQLIARLTKQLKVEE | -0.276 ± 0.061
ISTPTHWSKLDPKTMKVNDLRKELESRALSSKGLISQLIARLTKQLKVEE | -0.249 ± 0.055
ISTPTHWSKLDPKTMKVNDLRKELESRALSSKGLGSQLIARLTKQLKVEE | -0.356 ± 0.031
ISTPTHWSKHDPKTMKVNDLRKELESRALSSKGLKSQLIARLTKQLKVEE | -0.701 ± 0.073
ISTPTHWSKIDPKTMKVNDLRKELESRALSSKGLKSQLIARLTKQLKVEE | -0.203 ± 0.06
ISTPTHWSKPDPKTMKVNDLRKELESRALSSKGLKSQLIARLTKQLKVEE | -0.606 ± 0.059
ISTPTHWSKEDPKTMKVNDLRKELESRALSSKGLKSQLIARLTKQLKVEE | -0.704 ± 0.064
ISTPTHWSKGDPKTMKVNDLRKELESRALSSKGLKSQLIARLTKQLKVEE | -0.562 ± 0.041

Variant | abundance fitness
ISTPTHWSKLDPKTMKVNDLRKELESRALSSKGLKSQLIARLTKRLKVEE | 0.01 ± 0.041
ISTPTHWSKLDPKTMKVNDLRKELESRALSSKGLKSQLIARLTKWLKVEE | -0.244 ± 0.04
ISTPTHWSKLDPKTMKVNDLRKELESRALSSKGLKSQLIARLTKVLKVEE | -0.211 ± 0.046
ISTPTHWSKLDPKTMKVNDLRKELESRALSSKGQKSQLIARLTKQLKVEE | -0.015 ± 0.037
ISTPTHWSKLDPKTMKVNDLRKELESRALSSKGLKHQLIARLTKQLKVEE | -0.195 ± 0.058
ISTPTHWSKLDPKTMKVNDLRKELESRALSSKGLKRQLIARLTKQLKVEE | -0.115 ± 0.032
ISTPTHWSKLDPKTMKVNDLRKELESRALSSKGLKPQLIARLTKQLKVEE | -0.005 ± 0.048
ISTPTHWSKLDPKTMKVNDLRKELESRALSSKGLKAQLIARLTKQLKVEE | -0.121 ± 0.043
ISTPTHWSKLDPKTMKVNDLRKELESRALSSKGLKSQLIARLTKQLKVEM | -0.641 ± 0.16
ISTPTHWSKLDPKTMKVNDLRKELESRALSSKGLKSQLIARLTKQLKVEG | -0.228 ± 0.037
ISTPTHWSKLDPKTMKVNDLRKELESRALSSKGLKSQLIARLTKQLKVEH | 0.003 ± 0.16
ISTPTHWSKLDPHTMKVNDLRKELESRALSSKGLKSQLIARLTKQLKVEE | -0.135 ± 0.061
ISTPTHWSKLDPDTMKVNDLRKELESRALSSKGLKSQLIARLTKQLKVEE | -0.16 ± 0.054
ISTPTHWSKLDPTTMKVNDLRKELESRALSSKGLKSQLIARLTKQLKVEE | -0.13 ± 0.046
ISTPTHWSKLDPGTMKVNDLRKELESRALSSKGLKSQLIARLTKQLKVEE | -0.255 ± 0.036
ISTPTHWSKLDPETMKVNDLRKELESRALSSKGLKSQLIARLTKQLKVEE | -0.195 ± 0.034
ISTPTHWSKLDPSTMKVNDLRKELESRALSSKGLKSQLIARLTKQLKVEE | -0.147 ± 0.03
ISRPTHWSKLDPKTMKVNDLRKELESRALSSKGLKSQLIARLTKQLKVEE | -0.076 ± 0.034
ISIPTHWSKLDPKTMKVNDLRKELESRALSSKGLKSQLIARLTKQLKVEE | -0.114 ± 0.057
ISAPTHWSKLDPKTMKVNDLRKELESRALSSKGLKSQLIARLTKQLKVEE | -0.203 ± 0.037
ISTPTHWSKLDPKTMKVNDLRKELESRALSSKGLKSQLIAMLTKQLKVEE | -0.356 ± 0.045
ISTPTHWSKLDPKTMKVNDLRKELESRALSSKGLKSQLIAGLTKQLKVEE | -0.556 ± 0.041
ISTPTHWSKLDPKTHKVNDLRKELESRALSSKGLKSQLIARLTKQLKVEE | -0.996 ± 0.059
ISTPTHWSKLDPKTMKVNDLRKELESRALSSKGLKSQLIARKTKQLKVEE | -0.677 ± 0.055
ISTPQHWSKLDPKTMKVNDLRKELESRALSSKGLKSQLIARLTKQLKVEE | -0.091 ± 0.063
ISTPTHWSKLDPKTMKVNDLRCELESRALSSKGLKSQLIARLTKQLKVEE | -0.134 ± 0.05

Variant | abundance fitness
ISTPTHWSKLDPKTMKVNDLRNELESRALSSKGLKSQLIARLTKQLKVEE | -0.097 ± 0.04
ISTPTHWSKLDPKTMKVNDLRMELESRALSSKGLKSQLIARLTKQLKVEE | -0.028 ± 0.052
ISTPTHWSKLDPKTMKVNDLRKELESRALASKGLKSQLIARLTKQLKVEE | -0.05 ± 0.045
ISTPTHWSKLDPKTMKVNDLRKELESRALGSKGLKSQLIARLTKQLKVEE | -0.026 ± 0.037
ISTPTHWSKLDPKTMKVNDLRKELESRALLSKGLKSQLIARLTKQLKVEE | -0.184 ± 0.029
ISTPTHWSKLDPKTMKVNDLRKELESRALKSKGLKSQLIARLTKQLKVEE | 0.037 ± 0.047
ISTPTHWSKLDPKTMKVNDLVKELESRALSSKGLKSQLIARLTKQLKVEE | -0.106 ± 0.037
ISTPTHWSKLDPKTMKVNDLKKELESRALSSKGLKSQLIARLTKQLKVEE | -0.117 ± 0.072
ISTPTHWSKLDPKTMKVNDLFKELESRALSSKGLKSQLIARLTKQLKVEE | -0.419 ± 0.042
ISTPTHWSKLDPKTMKVNDLLKELESRALSSKGLKSQLIARLTKQLKVEE | -0.215 ± 0.039
ISTPTHWSKLDPKTMKVNDLGKELESRALSSKGLKSQLIARLTKQLKVEE | -0.603 ± 0.04
ISTPTHWSKLDPKTMKVNPLRKELESRALSSKGLKSQLIARLTKQLKVEE | -0.334 ± 0.034
ISTPTHWSKLDPKTMKVNSLRKELESRALSSKGLKSQLIARLTKQLKVEE | 0.038 ± 0.026
ISTPTHWSKLDPKTMKVNDLRKEFESRALSSKGLKSQLIARLTKQLKVEE | -0.825 ± 0.068
ISTPTHWSKLDPKTMKVNDLRKEAESRALSSKGLKSQLIARLTKQLKVEE | -0.829 ± 0.036
ISTPTHWSKLDSKTMKVNDLRKELESRALSSKGLKSQLIARLTKQLKVEE | -0.665 ± 0.047
ISTPTHWSKLDEKTMKVNDLRKELESRALSSKGLKSQLIARLTKQLKVEE | -0.754 ± 0.089
ISTPTHWSKLDPKTMKVNDLRKELESRDLSSKGLKSQLIARLTKQLKVEE | 0.129 ± 0.064
ISTPTHWSKLDPKTMKVNDLRKELESRLLSSKGLKSQLIARLTKQLKVEE | 0.04 ± 0.042
ISTPTHWSKLDPKTMKVNDLRKELESRALSSKGLKSQLIARLTKQLKVKE | -1.19 ± 0.22
ISTPTHWSKLDPKTMKVNDLRKELESRALSSKGLKSQLIARLTKQLKVWE | -1 ± 0.11
ISTPTHWSKLDPKTMKVNDLRKELESRALSSKGLKSQLIARLTKQLKVGE | -0.919 ± 0.044
ISTPTHWSKLDPKTMSVNDLRKELESRALSSKGLKSQLIARLTKQLKVEE | -0.011 ± 0.038
ISTPTHWSKLDPKTMKVNDLRKELESRALSSKNLKSQLIARLTKQLKVEE | -1.2 ± 0.3
ISTPTHWSKLDPKTMKVNDLRKELESRALSSKVLKSQLIARLTKQLKVEE | -0.919 ± 0.055
ISTPTHWSKLDPKTMKVNDLRKELESRALSSKFLKSQLIARLTKQLKVEE | -0.98 ± 0.14
